Key:
[1] = biological target: combination of receptor ALK4 and receptor ActRIIB; experiment: cell-based or functional assay
[2] = biological target: combination of receptor ALK7 and receptor ActRIIB; experiment: cell-based or functional assay

Neuronal Survival and Growth Factor 3 (NSG3) (ligand)
luciferase activity of the Smad3-specific pCAGA-luc reporter in HepG2 cells co-expressing ALK4, ActRIIB and NsG-3 (basal without NsG-3 approx. 2) (arbitrary units) [1]: 7 | luciferase activity of the Smad3-specific pCAGA-luc reporter in HepG2 cells co-expressing ALK7, ActRIIB and NsG-3 (basal without NsG-3 approx. 9) (arbitrary units) [2]: 33

Reference: patent US20040259779A1
